In the nanobody polyreactivity screen of Harvey et al. (2022):

Assay: yeast display, Sf9 membrane polyspecificity reagent, FACS + sequencing; frameworks hold sequencing errors
Outline: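 Nanobodies from a synthetic yeast display library (Saccharomyces cerevisiae BJ5465), induced 36–48 hours with galactose, were stained 1 hour at 4 °C with 10% biotinylated, detergent-solubilized Sf9 membrane reagent, enriched on streptavidin microbeads, then FACS-sorted. Anti-HA (expression) and streptavidin (reagent binding) fluorescence set low and high (top ~1%) gates. Polyreactivity labels come from the gate of origin. Genes were colony-PCR amplified, MiSeq 2 × 250 sequenced and filtered by CDR length.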

Sequence	polyreactivity (PSR sort gate)
QVQLVESGGGLVQAGGSLRLSCAASGFTTNYYARGWYRQAPGKERELVAAITTGGSTHYADSVKGRFTISRDNAKNTVYLQMNSLKPEDTAVYYCAAGTNRQQQRYFHHGGYYQYNYWGQGTQVTVSS	low polyreactivity
QVQLVESGGGLVQAGGSLRLSCAASGFTFKYYDMGWYRQAPGKERELVAAIDTSGGNTYYADSVKGRFTISRDNAKNTVYLQMNSLKPEDTAVYYCAATVPYYHDDYWGQGTQVTVSS	low polyreactivity
QVQLVESGGGLVQAGGSLRLSCAASGSIFTYYAMGWYRPAPGKERELVATITRRGGRTYYADSVKGRFTISRDNAKNTVYLQMNSLKPEDTAVYYCATRIRTVAYNYWGQGTQVTVSS	high polyreactivity
QVQLVESGGGLVQAGGSLRLSCAASGSIFVGNAMGWYRQAPGKERELVAAISWSGGSTYYADSVKGRFTISRDNAKNTVYLQMNSLKPEDTAVYYCATQLSIRMDYWGQGTQVTVSS	high polyreactivity
QVQLVESAGGLVQAGGSLRLSCAASGRIFRYNAMGWYRPAPGKERELVAAISSIGGRTYYADTVKGRFTISRDNAKNTVYLQMYSLKPEDTAVYSCNARGYLSRSHMHEYDYWGQGTQVTVSS	high polyreactivity
QVQLVESGGGLVQAGGSLRLSCDASGFIFVVYALGWYRQAPGKERDLVAAITNGGITYYADSVKGRFTISRDNAKNTVYLQMNSLKPEDTAVYYCNAQYTVYDGYVCYYYWGQGTQVTVSS	low polyreactivity
QVQLVESGGGLVQAGGSLRLSCAASGSTFLYYAMGWYRQAPGKERELVARITTRVGRTYYADSVKGRFTISRDNAKNTVYLQMNSLKPEDTAVYYCAAYPDYSYYYWGQGTQVTVSS	high polyreactivity
QVQLVESGGGLVQAGGSLRLSCAASGFIFTGYAMGWYRQAPGKERELVAAISRRGGSTYYADSVKGRFTISRDNAKNTVYLQMNSLKPEDTAVYYCAARTRTNGFDDWGQGTQVTVSS	high polyreactivity
QVQLVESGGGLVQAGGSLRLSCAASGRIFPSYAMGWYRQAPGKERELVAAISYSGASTYYADSVKGRFTISRDNAKNTVYLQMNSLKPEDTAVYYCYQLVEEDYWGLGTQVTVSS	low polyreactivity
QVQLVESGGGLVQAGGSLRLSCAASGRISYGNGMGWYIQAPGKERELVAAISWSTTRTYYADSVKGRFTISRDYAKNTVYLQMNSLKPEDTAVYYCNAAGRPYDFSGGRTMEYWGQGTQVTVSS	high polyreactivity
QVQLVESGGGLVQAGGSLRLSCAASRIFAYYTMGWIRQSPGKERELVAAITYSGGSTFYADSVKGRFTISRDNAKNTVYLQMNRLKPEDSSVYYCNAVVRNYGYDYWGQGTQVTVSS	high polyreactivity
QVQLVESGGGLVQAGGSLRLSCAASGSIFFLNAMGWYRQAPGKERELVAAITNVGSTYYADSVKGRFTISRDNAKNTVYLQMNSLKPEDTAVYYCNADPGEVLVGYDYWGQGTEVTVSS	low polyreactivity
QVQLVESGGGLVQAGGSLRLSCAASGSIFTPYAMGWYRQEPGKERELVAAISRSGGSTYYADSVKGRFTISRDNAKNTVYLQMNSLKPEDTAVYYCAVVVYDIYGYESDYWGQGTQVTVSS	low polyreactivity
QVQLVESGGGLVQAGGSLRLSCAASGSIFLGYAMGWYRQAPGKERELVAAITSGGSTNYADSVKGRFTISRDNAKNTVYLQMNSLKPEDTAVYYCAAKGEWSLVYTDYDYWGQGTQVTVSS	low polyreactivity
QVQLVESGGGLVQAGGSLRLSCAASGFIIGWYVMGWYRQAPGKERELVAAITWDSTSTYYADSVKGRFTISRDNAKNTVYLQMNSLKPEDTAVYYCAADRLDRYYYWGEGTQVTVSS	low polyreactivity
QVQLHESGGGLVQAGGSQRLSCASSGYIFYFQYMGWYRQAPGKEREFVAAISDGANTNYADSVKGRFTISRDNAKNTEYLQMNSLKPEDTAVYYCNADQYYWYEYDYWGQGTQVTVSS	low polyreactivity

Sequence	polyreactivity (PSR sort gate)
QVQLVESGGGLVQAGGSLRLSCAASGSIFGPYAMGWYRQAPGKERELVATISSGGNTNYADSVKGRFTISRDNAKNTVYLQMNSLKPEDTAVYYCAADYTWSVYWWVDYWGQGTQVTVSS	low polyreactivity
QVQLVESGGGLVQAGGSLRLSCAASGFTFRSYTMGWYRQAPGKERELVARITRSCGNTYYADSVKGRFTISRDNAKNTVYVQMNSLKPEDTEGYYCASVYWGKYSAGNLLEYDYWGQGTQVTVSS	high polyreactivity
QVPLVDSGGGLVQAGGSLRLSCAASGRSYGIYAMGWYIQAPGKERELVASITGRGGSTYYADSVKGRFTISRDNAKNTFYLQKNSLKPDDTAVYFCAARDRPYVHYSGLDYWGQGTQVTVSS	high polyreactivity
QVQLVESGGGLVQAGGSLRLSCAASGLIFYYYAMGGYRQAPGTQRELVACITGGDSTNYADSVKGRFTISRDNAKNTVYLQMNSLKPEDTAVYYCAAEFYGSSFGYRTYDYYYWGQGTEVTVSS	low polyreactivity
QVQLVESGGGLVQAGGSLRLSCAASGYTFAPYVMGWYRPAPGKERELVARISNNGGSTYYADSVKGRFTISRDNAKNTVYLQMNSLKPEDTAVYYCAADVGLIYFRYYYWGQGTQVTVSS	low polyreactivity
QVQLVESGGGLVQAGGSLRLSCAASGSIFPYYAMGWYRQAPGKERELVAAISSGDITDYADSVKGRFTISRDNAKNTVYLQMNSLKPEDTAVYYCAAVYDLGYYGPIWAIVLDDYWGQGTQVTVSS	low polyreactivity
QVQLVESGGGLVQAGGSLRLTCAASGIIFKQNVKGWYRKAPGKESELVAAITSRDGTTYYADSVKGRFTISRDNAKNTVYLQMNSLKPEDTAVYYCATLFKSGSYKYGYWGQGTQVTVSS	high polyreactivity
QVQLLESGGGLDQSGGSLRLSCAASGRIFTFNAMGWYRQAPGQERELVAAIRFRDGSTYYADSVKGRFTISRDNAKNNGYLQMYSLKPEDTAVYYSAATAYPWPYYYWGQGTQVTVSS	high polyreactivity
QVQLVESGGGLVQAGGSLRLSCAASGYTFGKYVMGWYRQAPGKERELVAAISKSGSGTYYADSVKGRFTISRDNAKNTVYFQMNSLKPEDTAVYYFAARGYGFPELDYWGQGTQVTVSS	high polyreactivity
QVHLQESGDGLVQPVGSQRLSCAASGYISGNYYMGWYRQAPGTERELVAGIDAFGSSTNYADCVKGRFTISRYNAKNSVYLQMYRLKPEDTAVYYCAAPPDGDRLFSYWGQGTQVTVSS	low polyreactivity
QVQLVESGGGLVQAGGSLRLSCAASGSIFADYTMGWYRQAPGKERELVAPINYRDGGTSYADSVKGRFTISRDKANNTVYLQMNSLKPEDTAVYYCTKQVDLSGQWDYWYGYYTYDYWGPGTQVTVSS	low polyreactivity
QVQLEESGGGLVQAGGSLRLSCAASGSTFWPYSMGWYRKATGKERELVAAITLRGGTTYYADSVKGRFTISRDNAMNTVYFQMNSLKPEDTAVYYCNADDYHYFSYDYWGQGTQVTVSS	low polyreactivity
QVQLVESGGGLVQAGGSLRLSCAASGRTYDNTMGWYRKAHGKESELVAAISWSGGRTRYADSVKGRFTISRDNAKNTVYLQMNSLKPEDTAVYYCAAANGGYPPYRYVYGYYYWGQGTQVTVSS	high polyreactivity
QVQLVESGGGLVQAGGSLRLSCAASGFILQYNAMGWYRQAPGKERELVAAITRSGVSTYYADSVKGRFTISRDNAKNTVYLQMNSLKPEDTAVYYCAATGGDRYEAYYYWGQGTQVTVSS	low polyreactivity
QVQLVESGGGLVQAGGSLRLSCAASGRIFVYYAMGWYRQAPGKEREFVAAISSRDDSTYYADSVKGRFTISRDNAKNTVYLQMNSLKPEDTAVYYCAADWRLGVGYDYWGQGSQVTVSS	low polyreactivity
QVQLVESGGGLVQAGGSLRFSCAASGIIFYFYTMGWYRQAPGKERELVAAISSSGGRTFYADSVKGRFTISRDHAKNTVYLQMNSLKPEDTAVYYCAAGYPYGGDYWGQGTQVTVSS	high polyreactivity
